Results reported in patent US20220125947A1 (published 2022).

T1: TCR gamma/delta constant region (TRGDC) (human, UniProt P0CF51 1-173; B7Z8K6 1-153)
T1 chain (looked up) 1: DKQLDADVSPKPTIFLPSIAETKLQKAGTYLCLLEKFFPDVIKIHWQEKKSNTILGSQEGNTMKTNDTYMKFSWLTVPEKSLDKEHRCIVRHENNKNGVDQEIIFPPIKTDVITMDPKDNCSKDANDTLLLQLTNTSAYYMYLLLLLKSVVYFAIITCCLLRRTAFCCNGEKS
T1 chain (looked up) 2: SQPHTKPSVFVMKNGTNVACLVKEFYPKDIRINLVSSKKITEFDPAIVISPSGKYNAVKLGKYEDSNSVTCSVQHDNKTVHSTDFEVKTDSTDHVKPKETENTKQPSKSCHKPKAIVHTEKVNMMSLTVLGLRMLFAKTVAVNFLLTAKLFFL


Molecular target: T1, TCR gamma/delta constant region (TRGDC)
Assay: cell-based or functional assay

CD25+ (Vg9+ cells), flow staining	CD71+ (Vg9+ cells), flow staining	Granzyme B; Luninex (supernatant)	IFNγ; Luninex (supernatant)	IL6; Luninex (supernatant)	TNFα; Luninex (supernatant)	Vg9 T cell %, flow staining	Binder
27.1%	92.4%	2630	1460	4900	138	6.1%	VG9B369 (antibody, human IgG1, kappa, V domains shown) VH: EVQLLESGPTLVKPTQTLTLTCTFSGFSLSTIGVGVGWIRQPPGKALEWLSLIYWNDDKRYNPSLKSRLTITKDTSKNQVVLTMTNMDPVDTATYYCAHSHDWVHAFDIWGQGTMVTVSS VL: DIVMTQSPSSLSASVGDRVTITCQASQDISHYLNWYQQKPGKAPKFLIYDASNLDTGVPSRFSGSGSGTDFTFTISSLQPEDIATYYCQQYDNFPLTFGGGTKVEIKR
36.5%	98.2%	4390	2120	590	158	12.3%	VG9B410 (antibody, human IgG1, kappa) heavy: not shown light: DIQMTQSPSSVSASVGDRVTITCRASQGINSWLAWYQQKPGNAPKLLIYAASSLQSGVPSRFSGIGSGTDFIFTISSLQPEDFASYYCQQANSFPWTFGQGTKVEIKRTVAAPSVFIFPPSDEQLKSGTASVVCLLNNFYPREAKVQWKVDNALQSGNSQESVTEQDSKDSTYSLSSTLTLSKADYEKHKVYACEVTHQGLSSPVTKSFNRGEC
33.3%	94.9%	1540	560	279	192	5.7%	VG9B136 (antibody, human IgG1, kappa, V domains shown) VH: QVQLQQSGPGLVKPSQTLSLTCAISGDSVSSNRAAWNWIRQSPSKGLEWLGRTYYRSKWYNEYAASVKSRMSINPDTSKNQFSLQLNSVTPEDTALYYCARDLWELREACDIWGQGTMVTVSS VL: DIVMTQSPSFLSTFVGDRVTITCRASQGISSYLAWYQQKPGKVPKLLIYVASTLQSGVPSRFSGSGSGTEFTLTISSLQPEDFATYYCQQLNSYPFTFGPGTKVDIKR
23.4%	91.8%	1140	461	256	1260	7.9%	VG9B112 (antibody, human IgG1, kappa, V domains shown) VH: QVQLQQSGPGLVKPSQTLSLTCAISGDSVSSNSAAWNWIRQSPSRGLEWLGGTYYRSKWFNNYAVSVKSRITINPDTSTNQFSLQLNSVTPADTAVYYCARGEWGLRDAFDIWGQGTMVTVSS VL: DIQMTQSPSFLSASVGDRVIITCRASQGIHSYLAWYQQKPGKVPKLLIYVASTLQSGVPSRFSGSGSGTEFTLTISSLQPEDFATYYCQQLNSYPWTFGQGTKLEIKR
24.8%	70.8%	3760	1490	587	959	12.4%	VG9B125 (antibody, human IgG1, kappa, V domains shown) VH: EVQLVESGGTLVQPGGSLRLSCAVSGFTFSSYDMNWVRQAPGKGLEWVSYISSSSTAKYYADSVKGRFTISRDNAKNSLYLQMNSLWDEDTAVYYCAREDIVVVTPILQHWGQGTTVTVSS VL: EIVMTQSPATLSLSPGERAILSCRASQSVSKDLAWYQQKPGQAPRLLIYDASNRATGIPARISGSGSGTDFTLTISSLEPEDFAVYYCQQRINWPLFTFGPGTKVEIKR
29.7%	97%	2960	846	228	89	8.5%	VG9B386 (antibody, human IgG1, kappa, V domains shown) VH: EVQLVESGGGLVKPGGSLRLSCAASGFTFSSYSMIWVRQAPGKGLEWVSSIGSSSTYIYYADSVRGRFTISRDNAKTSLYLQMNSLRAEDTAMYFCARDGETGGFDYWGQGILVTVSS VL: EIVMTQSPGTLSLSPGERATLSCRASQSISRSYLAWYQQKPGQPPRLLIYGPSNRATGIPDRFSASGSGTDFTLTNSRLEPEDFAVYYCQQYGSLPLTFGGGTKVEIKR
20.6%	89.6%	1760	352	123	215	3.8%	VG9B144 (antibody, human IgG1, lambda, V domains shown) VH: QVQLVQSGAEVKKPGASVKVSCKASGYTFTGYYMHWMRQAPGQGLEWMGWINPNSGATNKEQKFQGRVTMTRDTSISTAYMELSRLRSDDTAVYYCAREDDAFDVWGQGTMVTVSS VL: SSELTQDPAVSVALGQTVRITCQGDNLRNYYATWFQQKPGQAPVLVFFGKNNRPSGIPDRFSGSSSGDTASLTITGAQAEDEADYYCNSRDSSGNHVVFGGGTKLTVLG
24.7%	89.7%	1470	746	5200	135	5.5%	VG9B387 (antibody, human IgG1, lambda, V domains shown) VH: EVQLVESGAEVKKPGASVKVSCKASGFTFTGYYLQWVRQAPGQGLEWMGWINPNSGYTDYAQRFQDRVTMTRDTSINTAYMELSRLRSDDTAVYYCARLDDAFDVWGQGTMVTVSS VL: SYELTQDPAVSVALGQTVRITCQGDSLRNYYAIWYQQKPGQAPVLVIFGKNNRPSGIPDRFSGSSSGTTASLTITGTQAEDEADYYCNSRDSSGNHWVFGGGTKLTVLG

molecular target: T2, γδ T cell receptor on human γδ T cells (human); assay: flow cytometry, dose-response binding at 37° C. on human γδ T cells
T2 construct: Mixed population of primary cells; also called AG000003021 (γδ T cells)
Method: Binding of antibodies to human γδ T cells or SKW cell lines expressing Vγ9/Vδ2, Vγ9/Vδ2 or Vγ5/Vδ2 was carried out by flow cytometry. Briefly, the cells were centrifuged at 300×g for 5 minutes and the pellet was resuspended in 34 ml fresh media (in RPMI+10% FBS). 50 μL of the cells were then plated (44K cells/well) into assay plates. Samples were incubated for one hour at 37° C. in tissue culture (TC) incubator followed by wash steps by adding 100 μl FACS staining buffer. Secondary detention antibodies (A647 conjugated anti-human IgG Fc specific antibody (2 μg/mL) along with AF488 anti mouse CD3, clone OKT3 at 1 ug/mL) were added at 50 μL/well to appropriate wells according to the plate map. After incubating for 60 minutes at 37° C. in the TC incubator, cells were again washed as described above. This is followed by resuspension in 20 μL/well running buffer containing 1:1000 dilution of Sytox blue dead cell stain and the plates were run on iQue Screener.
Gating and data analysis: Human anti-human Vγ9 antibody (VG9B2 mAb at 10 nM) was used to mark the gating of positive population. All cells were first gated for singlets on SCS-A vs. SCS-H dot plot, live/dead followed by CD3 positive population, and this subset of CD3 positive population was gated for Vγ9 positive binding using positive control mAb. Cells were also assessed for cell binding of control mAbs by RL1 (A647) Geomeans from the live cell population. Advanced metrics were used and normalization metrics were chosen to calculate fold over background wells containing secondary antibody alone (designated as ‘background’ within ForeCyt settings).

Max. Activity	Binder
2320 fold over background	VG9B44 (antibody, human IgG1, kappa, V domains shown) VH: QVQLQQSGPGLVKPSQTLSLTCAISGDSVSSNSAAWNWIRQSPSRGLEWLGRTYYRSKWYNDYPISVKSRISINPDTSKNQFSLQLNSVTPEDTAVYYCARESGSYYTDGFDIWGQGTMVTVSS VL: DIQMTQSPSFLSASVGDRVTITCRASQGISSYLAWYQQKPGKAPKLLIYAASTLQSGVPSRFSGSGSGTEFTLTISSLQPEDFATYYCQEFNSYPYTFGQGTKLEIKR
2250 fold over background	VG9B402 (antibody, human IgG1, kappa) heavy: not shown light: DIQMTQSPSSVSASVGDRVTITCRASQGINSWLAWYQQKPGNAPKLLIYAASSLQSGVPSRFSGIGSGTDFIFTISSLQPEDFASYYCQQANSFPWTFGQGTKVDIKRTVAAPSVFIFPPSDEQLKSGTASVVCLLNNFYPREAKVQWKVDNALQSGNSQESVTEQDSKDSTYSLSSTLTLSKADYEKHKVYACEVTHQGLSSPVTKSFNRGEC
2390 fold over background	VG9B403 (antibody, human IgG1, kappa) heavy: not shown light: DIVMTQSPGTLSLSPGDRATLSCRASQSVASSYLAWYQQKPGQSPRLLIYGASSRATGIPDRFSGSGSGTDFTLTISRLEPEDFAVYYCQQYGSSPPYTFGQGTKVEIKRTVAAPSVFIFPPSDEQLKSGTASVVCLLNNFYPREAKVQWKVDNALQSGNSQESVTEQDSKDSTYSLSSTLTLSKADYEKHKVYACEVTHQGLSSPVTKSFNRGEC
2270 fold over background	VG9B67 (antibody, human IgG1, kappa, V domains shown) VH: EVQLVESGGGLVKPGGSLRLSCAASGFTFSSYTMNWVRQAPGKGLEWVSSISSSSSYIDYAESVKGRFTISRDNAKNSLYLQMNSLRAEDTAVYYCARDGDILATIRGSFDYWGQGTTVTVSS VL: DIVMTQTPLSLPVTPGEPASISCRSSQSLLDSDAGNTYLDWYLQKPGQSPQLLIYTLSYRASGVPDRFSGSGSGTDFTLKISRVEAEDVAIYYCMQRIEFPITFGQGTKVEIKR
2370 fold over background	VG9B191 (antibody, human IgG1, lambda, V domains shown) VH: EVQLVQSGGGLVKPGGSLRLSCAASGFTFSRYSMNWVRQAPGKGLEGVSSISSSSSYIYYADSVKGRFTISRDNAKNSLYLQMNSLRAEDTAVYYCARDGPTVNWDYYFDLWGRGTLVTVSS VL: QSVLTQPPSVSAAPGQKVTISCSGSSSNIGNNYVSWYQQLPGTAPKLLIYDNNKRPSGIPDRFSGSKSGTSATLGITGLQTGDEADYYCGTWDSSLSTSVVFGGGTKLTVLG
2410 fold over background	VG9B36 (antibody, human IgG1, kappa, V domains shown) VH: QVQLVESGGGLVKPGGSLRLSCASSGFTFSSYGMYWVRQAPGKGLEWVSSISTGSSYIYYADSVKGRFTISRDNAKNSLYLQMNSLRAEDTAVYYCARDKGLAVTGYIMDVWGQGTTVTVSS VL: EIVLTQSPSSLSASVGDRVTITCQASQDISNYLNWYQQKPGKAPKLLIYDASNLETGVPSRFSGSGSGTDFTFTISSLQPEDIAIYYCQQYDNLPMYTFGQGTKVEIKR
